Assay results: US20240209089A1 (SUZHOU SMARTNUCLIDE BIOPHARMACEUTICAL, published 2024)
Where “and” joins values, the source holds several entries; their conditions need not be identical. Identical values can stand only once.

Assays:
[1] = target: T1, human CD8α full-length protein (human, UniProt P01732 22-235); assay: saturation radioligand binding on MC38-CD8 cells, 2 h at 4 °C, one-site fit; panel assigned through the KD of Table 8 (3.8 nM, 125I-SNA006c)
T1 construct: whole, on cells; The same entry is used for MC38-CD8α transfectants and for human CD8+ T cells from peripheral blood; the assay field says which cells; also called cell surface CD8α; MC38-CD8α cells
T1 sequence (P01732 22-235): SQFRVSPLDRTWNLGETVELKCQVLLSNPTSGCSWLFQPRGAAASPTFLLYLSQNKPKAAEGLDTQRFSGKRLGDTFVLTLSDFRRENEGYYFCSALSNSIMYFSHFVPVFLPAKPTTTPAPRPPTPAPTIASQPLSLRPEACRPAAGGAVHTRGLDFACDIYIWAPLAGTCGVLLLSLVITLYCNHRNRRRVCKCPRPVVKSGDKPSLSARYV
Method: (§1) Receptor binding reaction: a radioligand saturation method was used, total binding and non-specific binding groups were included.
(§2) The cells were incubated for 2 h at 4° C. After that, the supernatant was extracted, the cells were washed 6 times with PBS pre-cooled at 4° C., and 200 μL of PBS was added into each well every time. Finally, the filter membrane was collected, the radioactivity count of each tube of sample and standard sample was measured on the γ counter. Finally, saturation curve fitting was performed by using Prism 7.0 (GraphPad Software, Inc.) software according to the single-point binding model, and then KD and Bmax were calculated.

[2] = target: T1, human CD8α full-length protein; assay: radioligand saturation binding on MC38-CD8 cells, 4 °C, one-site fit
Method: as §1, §2

CD8α-Fc fusion protein [3] = target: T2, CD8α-Fc fusion protein (human); assay: ELISA on coated CD8α-Fc, antibody after exchange into NaHCO3 buffer, relative to the uncoupled antibody as standard
T2 construct: also called CD8 α-Fc protein; CD8α-Fc tag antigen
T2 sequence (chain, as listed by the source): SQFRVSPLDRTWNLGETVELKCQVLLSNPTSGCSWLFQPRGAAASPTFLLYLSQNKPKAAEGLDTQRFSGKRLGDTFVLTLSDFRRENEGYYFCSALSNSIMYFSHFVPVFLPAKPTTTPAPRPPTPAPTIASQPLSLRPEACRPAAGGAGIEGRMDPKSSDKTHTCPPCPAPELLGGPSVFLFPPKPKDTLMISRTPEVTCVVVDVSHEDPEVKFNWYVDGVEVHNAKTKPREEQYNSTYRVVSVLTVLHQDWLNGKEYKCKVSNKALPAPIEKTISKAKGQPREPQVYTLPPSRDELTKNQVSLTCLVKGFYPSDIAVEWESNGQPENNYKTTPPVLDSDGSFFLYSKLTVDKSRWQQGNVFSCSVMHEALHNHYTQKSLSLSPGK
Method: (§3) By using PD-10 column (GE), the buffer of the CD8α-cHis single domain antibody (including C37, C46 and S5) was changed to a NaHCO3 buffer solution with a certain pH, and p-SCN-Bn-NOTA (Macrocyclics, article No. B-605) was dissolved into DMSO with a concentration of 25 mg/mL, and the p-SCN-Bn-NOTA solution whose molar was twice that of lysine on the single domain antibody was added into the CD8α single domain antibody, the above materials reacted for a certain time period at room temperature, the conjugated product was purified by PD-10 column (GE) and concentrated by ultrafiltration.
(§4) The activity of the above CD8α-NOTA after labeling was determined by ELISA. The specific method is as follows: the CD8α-Fc fusion protein was placed in the coated plate in a concentration of 5 μg/well at 4° C. overnight. After blocking with 3% BSA at 37° C., samples subjected to gradient dilution (the uncoupled CD8α single domain antibody was a standard substance) were added to act for 1 hour at 37° C. Then, anti-his-HRP (purchased from Abcam Company) was added to react for 1 hour at room temperature. Then, a chromogenic solution was added, and the absorption value at 450 nm was read.

CD8α-Fc fusion protein [4] = target: T2, CD8α-Fc fusion protein; assay: ELISA on coated CD8α-Fc, anti-his-HRP, four-parameter fit
Method: (§5) The CD8 α-Fc protein was transiently expressed by HEK293 and purified by protein A affinity chromatography. The plate was coated with the obtained CD8α-Fc protein in a concentration of 0.5 μg/well at 4° C. overnight, and then the gradient dilution series of the obtained anti-CD8α single domain antibody protein was added to react for 1 hour at room temperature. After washing, anti-his horseradish peroxidase labeled antibody was added to react for 1 hour at room temperature. After washing, a chromogenic solution was added, and an absorption value at 450 nm was read. The data processing and plotting analysis were performed by using software SotfMaxPro v5.4. […] Of the 10 selected antibodies (see Table 5 for details), the relative activities of different anti-CD8α single domain antibodies were compared by using C2-cHis as control, so as to reflect the affinity of the antibodies on CD8α. Of the 10 tested antibodies, C37, C42, C46, S5 and S36 have relatively high binding activity.

CD8α-Fc fusion protein [5] = target: T2, CD8α-Fc fusion protein; assay: ELISA on coated CD8α-Fc, relative to C2-cHis control
Method: as §5

CD8α-cHis fusion protein = target: T3, CD8α-cHis fusion protein (UniProt P01732 22-182); assay: BLI (ForteBio Octet), biotinylated antibody on SA sensor, CD8α-chis 6.25-100 nM
T3 construct: not shown: C-terminal His tag
T3 sequence (P01732 22-182): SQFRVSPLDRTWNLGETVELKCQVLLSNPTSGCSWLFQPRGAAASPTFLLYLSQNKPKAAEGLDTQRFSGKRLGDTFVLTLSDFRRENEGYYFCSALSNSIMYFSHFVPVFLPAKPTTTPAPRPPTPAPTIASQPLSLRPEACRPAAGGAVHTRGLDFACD
Method: The anti-CD8α single domain antibody-biontin was fixed on an SA biological sensor. Then, CD8α-chis with a concentration of 6.25-100 nM bound to a nano antibody and then dissociated. The binding dynamic variables of four antibodies C37, C42, C46 and S5 were evaluated and determined by using Octet Data Analysis version 9.0, including Kon, Koff and Kd.

[6] = target: T1, human CD8α full-length protein; assay: flow cytometry on MC38-CD8α cells, secondary antibody-PE
Method: Mouse colon cancer MC38 cell lines stable transfected with human CD8α full-length protein gene were constructed to obtain MC38 cells (MC38-CD8α cells) stably expressing human CD8α proteins on the cell membrane. Prior to use, the cells were cultured to >90% convergence. The anti-CD8α single domain antibody was used to perform flow cytometry on these cells for quantitative analysis of indirect immunofluorescence staining so as to determine the quantity of receptors on surface of each cell.
The cells were collected and suspended to a concentration of 2.5×10⁶ cells/mL. 200 μL of cell aliquot samples were mixed with 20 μL of primary antibody, and the obtained mixture was incubated for 30 min on ice. The cells were centrifuged, washed and re-suspended, then 5 μL of secondary antibody-PE conjugate was added, and then the above mixture was incubated for 30 minutes on ice. The cells were washed twice, re-suspended and underwent flow cytometry on BD FACSCelesta™. For each tube, at least 5×10⁴ events were collected. All the analyses were single colors, and PE was detected in […].

CD8α-Fc fusion protein [7] = target: T2, CD8α-Fc fusion protein; assay: ELISA on coated CD8α-Fc, NOTA conjugate, relative to the uncoupled antibody as standard
Method: as §3, §4

CD8α-Fc fusion protein [8] = target: T2, CD8α-Fc fusion protein; assay: ELISA on coated CD8α-Fc; C2-cHis is the control (=100)
Method: as §5

Row | EC50 (CD8α-Fc fusion protein [4]) | Relative activity (%) (CD8α-Fc fusion protein [5]) | Positive rate (%) [6] [%] | Binder | other results
1 | 2.28 ng/mL | 96.4 | 93.6 | C27-cHis antibody (VHH, HEK293 construct; an E. coli preparation is also described) VHH: QLQLVESGGGLVQPGGSLRLSCVVSGSIFAINTMGWYRQAPGKQRELVATMHSGGSTNYADSVKGRFTISRDAAPKTVYLQMNSLKPADTAVYYCHADDSGWGTVDSWGQGIQVTVSS | –
2 | 3.55 ng/mL | 61.9 | 98.4 | C29-cHis antibody (VHH, HEK293 construct; an E. coli preparation is also described) VHH: QVQLVESGGGLVQAGGSLRLSCVASGFTSDDYVIGWFRQAPGKEREGVSCISSSDGTTNYADSVKGRFTISSDNAKNTVYLQMNSLKPEDTAVYYCAADPMRVCPYSGTYYGILGFGTSGQGTQVTVSS | –
3 | 2.2 ng/mL and 3.18 ng/mL and 4.11 ng/mL | – | 99.9 | C2-cHis antibody (VHH, HEK293 construct; An E. coli (PET22b) preparation is also described) VHH: QVQLVESGGGLVQPGGSLRLSCAASGFTLDYYAIGWFRQAPGKEREGISCIRIYDGNTYSAESVKGRFTISSDNAKNQVYLQINTLKPEDTAVYYCAAGSYYSCSVYPDYDMDYWGKGTLVTVSS | Relative activity (%) (CD8α-Fc fusion protein [8]): 100%

Second part, the binder before the results:

Row | Binder | EC50 (CD8α-Fc fusion protein [4]) | Relative activity (%) (CD8α-Fc fusion protein [5]) | Positive rate (%) [6] [%] | other results
4 | ^125I-SNA006c (VHH, 125I label by the chloramine T method; labelled residues not stated) VHH: QVQLVESGGGLVQAGGSLRLSCAASGVTFDDLAIGWFRQVPGKGREGVSTIGTSDGTAYYADSVKGRFTISSDNAKNTVYLQMNSLKPEDTAVYYCAVDLDYGLGSLLPMGYDYWGQGTQVTVSS | – | – | – | Kd [1]: 3.84 nM; Kd [2]: 3.8 nM
5 | C46-cHis antibody (VHH, HEK293 construct; an E. coli preparation is also described; Biotinylated for the ForteBio assay; also called SNA006c; SNA006-c) VHH: QVQLVESGGGLVQAGGSLRLSCAASGVTFDDLAIGWFRQVPGKGREGVSTIGTSDGTAYYADSVKGRFTISSDNAKNTVYLQMNSLKPEDTAVYYCAVDLDYGLGSLLPMGYDYWGQGTQVTVSS | 1.82 ng/mL | 175 | 99.5 | Relative activity of CD8α-cHis-NaHCO3 (%) (CD8α-Fc fusion protein [3]): 76%; Kd (CD8α-cHis fusion protein): 1.08 nM; koff (CD8α-cHis fusion protein): 0.000271 s⁻¹; kon (CD8α-cHis fusion protein): 251000 M⁻¹ s⁻¹
6 | C46-cHis-NOTA (VHH, p-SCN-Bn-NOTA coupled (lysine); sites and number not stated, also called CD8α-cHis-NOTA (C46)) VHH: QVQLVESGGGLVQAGGSLRLSCAASGVTFDDLAIGWFRQVPGKGREGVSTIGTSDGTAYYADSVKGRFTISSDNAKNTVYLQMNSLKPEDTAVYYCAVDLDYGLGSLLPMGYDYWGQGTQVTVSS | – | – | – | Relative activity of CD8α-cHis-NOTA (%) (CD8α-Fc fusion protein [7]): 20%
7 | S5-cHis antibody (VHH, HEK293 construct; an E. coli preparation is also described; Biotinylated for the ForteBio assay; also called SNA006d; SNA006-d) VHH: QVQLVESGGGLVQAGGSLRVSCAASGGTFSSTAMGWFRQAPGKEREFVAAISWSGGYTYYADSVRGRFTISRDNALNTVSLQMNSLKPEDTAVYYCAADISGLDTVAAGIFTEPNIDYWGKGTLVTVSS | 2.28 ng/mL | 180 | 99.7 | Relative activity of CD8α-cHis-NaHCO3 (%) (CD8α-Fc fusion protein [3]): 98%; Kd (CD8α-cHis fusion protein): 2.87 nM; koff (CD8α-cHis fusion protein): 0.000445 s⁻¹; kon (CD8α-cHis fusion protein): 155000 M⁻¹ s⁻¹
8 | ^125I-SNA006d (VHH, 125I label by the chloramine T method; labelled residues not stated) VHH: QVQLVESGGGLVQAGGSLRVSCAASGGTFSSTAMGWFRQAPGKEREFVAAISWSGGYTYYADSVRGRFTISRDNALNTVSLQMNSLKPEDTAVYYCAADISGLDTVAAGIFTEPNIDYWGKGTLVTVSS | – | – | – | Kd [2]: 1.5 nM
9 | S5-cHis-NOTA (VHH, p-SCN-Bn-NOTA coupled (lysine); sites and number not stated, also called CD8α-cHis-NOTA (S5)) VHH: QVQLVESGGGLVQAGGSLRVSCAASGGTFSSTAMGWFRQAPGKEREFVAAISWSGGYTYYADSVRGRFTISRDNALNTVSLQMNSLKPEDTAVYYCAADISGLDTVAAGIFTEPNIDYWGKGTLVTVSS | – | – | – | Relative activity of CD8α-cHis-NOTA (%) (CD8α-Fc fusion protein [7]): 105%
10 | S36-cHis antibody (VHH, HEK293 construct; an E. coli preparation is also described) VHH: QVQLVESGGGLVQAGGSLRLSCAASIRTFSDYAMAWFRQGPRKEREFVAAISWNGVTTFYADSVKGRFTISRDDAKNSVYLQMNSLKPEDTAVYYCAGGLNVGWGTHEREYDDWGQGTQVTVSS | 1.42 ng/mL | 289 | 99.7 | –
11 | S13-cHis antibody (VHH, HEK293 construct; an E. coli preparation is also described) VHH: QLQLVESGGGLVQPGGSLRLSCVVSGSIFAINTMGWYRQAPGKQRELVATMHSYGSTNYADSVKGRFTISRDNAKKTVYLQMNSLKPADTAVYYCHADDTGWGTVDSWGQGTQVTVSS | 2.89 ng/mL | 142 | 96.3 | –
12 | C24-cHis antibody (VHH, HEK293 construct; an E. coli preparation is also described) VHH: QVQLVESGGGLVQPGGSLRLSCAASGPIFSINTMGWYRQAPGKQRELVATMHSTGSTNYADSVKGRFTISRDNAKKTVYLQMNSLKPDDTAVYYCHVDDTGWGTVDSWGQGIQVTVSS | 4.59 ng/mL | 47.9 | 99.4 | –
13 | C42-cHis antibody (VHH, HEK293 construct; an E. coli preparation is also described; Biotinylated for the ForteBio assay; also called SNA006b; SNA006-b) VHH: QVQLVESGGGLVQAGGSLRLSCAASGLTFEDYAIGWFRQAPGKEREGISCIRIYDGNTYSAESVKGRFTISSDNAKNQVYLQINTLKPEDTAVYYCAAGSYYSCSVYPDYDMDYWGKGTLVTVSS | 1.18 ng/mL | 269 | 99.9 | Kd (CD8α-cHis fusion protein): 0.727 nM; koff (CD8α-cHis fusion protein): 0.00042 s⁻¹; kon (CD8α-cHis fusion protein): 578000 M⁻¹ s⁻¹
14 | ^125I-SNA006a (VHH, 125I label by the chloramine T method; labelled residues not stated) VHH: QLQLVESGGGLVQAGGSLRLSCAASGLTFEDYAIGWFRQAPGKEREGISCIRIYDGNTYSAESVKGRFTISSDNAKNQVYLQINTLKPEDTAVYYCAAGSYYSCSVYPDYDMDYWGKGTLVTVSS | – | – | – | Kd [2]: 0.46 nM
15 | C37-cHis-NOTA (VHH, p-SCN-Bn-NOTA coupled (lysine); sites and number not stated, also called CD8α-cHis-NOTA (C37); NOTA-CD8α single domain antibody precursor) VHH: QLQLVESGGGLVQAGGSLRLSCAASGLTFEDYAIGWFRQAPGKEREGISCIRIYDGNTYSAESVKGRFTISSDNAKNQVYLQINTLKPEDTAVYYCAAGSYYSCSVYPDYDMDYWGKGTLVTVSS | – | – | – | Relative activity of CD8α-cHis-NOTA (%) (CD8α-Fc fusion protein [7]): 77%
